Results taken from the DeepSol protein solubility set.

assay: soluble on expression in E. coli; label from the status in PepcDB or PDB records

| Sequence | soluble on expression in E. coli |
| --- | --- |
| MRGSHHHHHHTDPALRATQKNFVELRNVTKRFGSNTVIDNINLTIPQGQMVTLLGPSGCGKTTILRLVAGLEKPSEGQIFIDGEDVTHRSIQQRDICMVFQSYALFPHMSLGENVGYGLKMLGVPRAELKARVKEALAMVDLEGFEDRFVDQISGGQQQRVALARALILKPKVLLFDEPLSNLDANLRRSMRDKIRELQKQFDITSLYVTHDQSEAFAVSDTVLVMNKGHIMQIGSPQDLYRQPASRFMASFMGDANLFPATFSDGYVDIYGYHLPRPLHFGTQGEGMVGVRPEAITLSDRGEESQRCVIRHVAYMGPQYEVTVEWHGQEILLQVNATRLQPDVGEQYYLEIHPYGMFVLADAAGLCGR | soluble |
| MRHLPTTDIQSTLRRGKSVEQFMGRSPASRNHIRHIELRPSNNLVEVWVYDVEDQGNEEWLDLYDFNELEKGEADLPAATFVDADAAIAYAQEALSANPSRWVNLGIAQSEYLDYIRSGRPDRWPAAA | not soluble |
| MRHRVKKKHFDRTKEQRLALYRSLARALIFDERIETTVERAKALRSFIEPLVELAKEGTLHARRQALSRLPDKPAIKKLFEDIAPRFEGRNGGYVRIIKLPYRRRGDGAEMAIIEWVELEHHHHHH | not soluble |
| MRHVISVLVQDHPRVLNRITGLFARRGFNLESLAVGTTHQPGLSRICLVVSGDDRTLEQVEKQLNRLIEVLKVTDHTEPHVERELCLVKVHVAGLEERLAVKDIQEAFRARVVDVAQKSLILELTGDTQKVNSFIEALRPYGILEVMRTGAVAMSRGDRVLKVREKKEAV | soluble |
| MRIDILTLFPGMFSGVLNESILKKAQEKGAVDIRLIDFREFADNKHKTVDDYPYGGGAGMVLKPQPIFDAVEHVTAGSPGARIILLCPQGERYTQKKAEELAKETHLVLICGHYEGYDERIRQYLATDEISIGDYILTGGELGAMVIVDSVVRLLPGVLGNEASPVDDSFSSGLLEYPQYTRPADFRGMKVPDILLSGNHQLIAEWREKESLRRTFLRRPDLLDEYPLTDKQKQWLKEWEKERE | not soluble |
| MRILAFPYTHTLSHLSRVLAVALELRRMGHEVVFAGESAKVSFVSQQGFDVVPIHEPDPEMLFGNIRSGKLRFVEDAELLQMLTADIEVIRSLKPDLVLSDGRFSAPLSTHLTNVRHAAIVNASSTEYRALPYVPFFDWMPPWLISRDAMIWKALVRLNLFLEMKLFDNVMKVFKRLSRELNTNRTVTATNCLTGKDITLLADIPEYFPSRNLPASYHYVGPLTWKSVLAPPAWWPLDIPSSPLVYVTMGTTGVSEFFSKLGPSLSTSFFSSIVTTGGQSSELKPMPGKVYVESYLDGDLVMERSDVVICHGGNGTIYQALSHGKPVIGIPTIPDQKFNMRRVEAMGFGKSLDLKQFLEKPSLLADTVKQVLSDHSFRNSAQKIQAVLKSYNAATTSAKILIDSILLEHHHHHH | not soluble |
| MRILFSLFFFISLSLLAQPLSLSLKNAPTAEILSYLAEENMKNIVLSDQIDKNTTLRIENSHFDEIVESIVRANQLSKRKEKQIYFIGHLKEDKAIEKIDNGDKPKLITQTIKLDYAKASEVIESLTKGKGNGNVLSEQGYLYFDERSNSLIIKDSPDSMKHILALIKNLDKPTEQIAIEARIVTISSQDLQELGVRWGMFSPSDDYHKVASSLETKGLTTANHLNVNFPVNNATSLALQVARINSRVLDLELTALEQENNVEIIASPRLLTTNKKPASIKQGAEIPYVLYNRKDEVKNIEFKEAVLGLQVTPHISADNQILLDLVVTQNSPNLNNTAVNGLITIDKQELNTQVFAKHGETIVLGGIFQHLTAKGEDRVPLLGSIPVLKKLFSHSTDKITKRELVIFVTPYLVQDKYKKLEHHHHHH | not soluble |
| MRILYFDCFAGASGDMILGALLDLGIDVGIFKRELAGLNLDGFDIAVEKKVINSIAVTDVNVIVKEECNHHTGHHHHCERNLADIEKIIDESSLKDNVKRLSKKIFSEIARAEAKVHNKSIEDVHFHEVGAIDSIVDIVGTAICLDLLKVDKIYSSPMHDGTGFIECQHGKLPVPVPAVLEMLKESNIPYITEDVNTELLTPTGLGIIKCVASKFGPMPPMTIEKVGYGAGKRQTGRFNALRCILGNAKEKEKIDDEICMLETNIDDMNPEILGYVMNRLFENGALDVFYTPVYMKKNRPGVLLTVLTDKEHEEKLVDIILTETTTLGIRKTTAQRYVLEREIKHVNTEFGKIRVKESSFGDYKKYSPEFEDCKKVAQELKIPLSKVYDAVNKAILVFEERNENALQ | soluble |
| MRIVYCISGTCNSGGMERVLSNKANYLAAHGYEVTIVTTDQRGRRPFFALDGRIECVDLDVNYETNNGKSFFNKLVHYPFKQLKHKRRLTKVLNLIKPDITVSMFCNDVAFLPSIQDGSKKVLEVHFSRFKRLQYDRKGLWRLADKWRNRNEQRQVACFDKFVVLTHEDKDYWEGHANIEVIPNAQTFACDVPAALESKTVVAVGRYTYQKGFDMLLRAWRRVCDSIDDWQLHIVGEGEMKESLQQQILDLSLEDRVELCPATSDIQSVYREASVLVLSSRYEGFGMVLLEAQTAGVPTVSFDCKCGPSDIVADGVTGYLVPANDIPALAEKLLVLMRDETLRKQMGRNAFADASRFSEKAVMQRWTDLFENFR | not soluble |
| MRKNILITGVHGYIGNALKDKLIEQGHQVDQINVRNQLWKSTSFKDYDVLIHTAALVHNNSPQARLSDYMQVNMLLTKQLAQKAKAEDVKQFIFMSTMAVYGKEGHVGKSDQVDTQTPMNPTTNYGISKKFAEQALQELISDSFKVAIVRPPMIYGAHCPGNFQRLMQLSKRLPIIPNINNQRSALYIKHLTAFIDQLISLEVTGVYHPQDSFYFDTSSVMYEIRRQSHRKTVLINMPSMLNKYFNKLSVFRKLFGNLIYSNTLYENNNALEIIPGKMSLVIADIMDETTTKDKA | not soluble |
| MRKSDREAFLSSVLGNEQPPAHLARTVIEEKLRNAIIDGSLPSGTALRQQELATLFGVSRMPVREALRQLEAQSLLRVETHKGAVVAPLITEDAVDAYALRILLESEALRLSIPLLDADDLAAAASYIEQLEVETDFGQIGRLNRMFHLSLYAKTHNKRLMRLVEEGLNEEERFLRFNLSSMGLGKLSQDDHWQLLRLAEQKAVEPCVEALQYHLNRGVQAVTQYLQSQKAGNVKPARTKKNTPA | soluble |
| MRKVLVFLKNSKKAFETFKRVERVLKDLNLSYKKFINRKELFKVLKPKDYELFLVIGGDGTFLSAARIASRFGVPLVGVNEGRFGFLTEIKKEEIKKVLPLVLEGRAKLQERLMIDVYLRSRNRLRYLGNYLNDAVISKSSIARIIRTKVFINGEEVLEVFGDGVILSTPTGSTAYALSAGGPIVYPESQNLLFVPICPHTLSNRPLVLPSKFEVKFKVVSENMEAFLTLDGQEGFHLKKGDEVIVKRSRYVCRMYSHPRKSFFGILKEKLRWG | soluble |
| MRKVPIITADEAAKLIKDGDTVTTSGFVGNAIPEALDRAVEKRFLETGEPKNITYVYCGSQGNRDGRGAEHFAHEGLLKRYIAGHWATVPALGKMAMENKMEAYNVSQGALCHLFRDIASHKPGVFTKVGIGTFIDPRNGGGKVNDITKEDIVELVEIKGQEYLFYPAFPIHVALIRGTYADESGNITFEKEVAPLEGTSVCQAVKNSGGIVVVQVERVVKAGTLDPRHVKVPGIYVDYVVVADPEDHQQSLDCEYDPALSGEHRRPEVVGEPLPLSAKKVIGRRGAIELEKDVAVNLGVGAPEYVASVADEEGIVDFMTLTAESGAIGGVPAGGVRFGASYNADALIDQGYQFDYYDGGGLDLCYLGLAECDEKGNINVSRFGPRIAGCGGFINITQNTPKVFFCGTFTAGGLKVKIEDGKVIIVQEGKQKKFLKAVEQITFNGDVALANKQQVTYITERCVFLLKEDGLHLSEIAPGIDLQTQILDVMDFAPIIDRDANGQIKLMDAALFAEGLMGLKEMKS | soluble |
| MRLFIAEKPSLARAIADVLPKPHRKGDGFIECGNGQVVTWCIGHLLEQAQPDAYDSRYARWNLADLPIVPEKWQLQPRPSVTKQLNVIKRFLHEASEIVHAGDPDREGQLLVDEVLDYLQLAPEKRQQVQRCLINDLNPQAVERAIDRLRSNSEFVPLCVSALARARADWLYGINMTRAYTILGRNAGYQGVLSVGRVQTPVLGLVVRRDEEIENFVAKDFFEVKAHIVTPADERFTAIWQPSEACEPYQDEEGRLLHRPLAEHVVNRISGQPAIVTSYNDKRESESAPLPFSLSALQIEAAKRFGLSAQNVLDICQKLYETHKLITYPRSDCRYLPEEHFAGRHAVMNAISVHAPDLLPQPVVDPDIRNRCWDDKKVDAHHAIIPTARSSAINLTENEAKVYNLIARQYLMQFCPDAVFRKCVIELDIAKGKFVAKARFLAEAGWRTLLGSKERDEENDGTPLPVVAKGDELLCEKGEVVERQTQPPRHFTDATLLSAMTGIARFVQDKDLKKILRATDGLGTEATRAGIIELLFKRGFLTKKGRYIHSTDAGKALFHSLPEMATRPDMTAHWESVLTQISEKQCRYQDFMQPLVGTLYQLIDQAKRTPVRQFRGIVAPGSGGSADKKKAAPRKRSAKKSPPADEVGSGAIAHHHHHH | soluble |
| MRLHIGGREKHPDWKIFDALERPEVNFVGNAADLSQFADDSIEAIYASHVLEHFHHSLGNELVSVLLEWRRVLLPNGKLYISVPDLQTLSWLFLSPMAGFQHRLQIMRMMFGGQVDQYDVHKVGFDCEILFTYLQAAKFSDYERVENFELFQDCSNLVFLGYPISLNVVAVKLEHHHHHH | not soluble |
| MRLIAAGEAQNAQQADEDVVQRNIQANRGTNIVRFTAMNDVAGFKQNSARGDQNEDRADRQMQGRQLQEDISNHTNQHHHNTRHQHTAKERHIFAGGQHIRRAAEEHQRRSAQCHSDYVTHSSRQVGVQNWSEDISQKTGKGECGDNPGRLIRRFVGQEHQTIHTHQRQNQTRRWQHQHRTGSCGNRRKGQRQAQQKIGITQHLMGAKQRCTVM | soluble |
| MRLIMKPEHSTRGRVIFVGAGPGNPDLLTVRAREVLGSTANAVVDSTVGVGIRAVIAEHLEVPQAKLDAAEAEYERMCAAAKRRKPPRPDAPTAAEITEVSADASVDEVMAVLLPLLDEGDVIRLVQGNPLADSRALDEITAVTQVGADFQIVPGMSLPAAVPAFAGITLGDSYTKTTVSEDTNWDQLATAPLPLILQASKDDLLTIAMELKDRKLPASTPVTVTMNGTTRLQRSFDVTLKTMKSLVKQELDGTLVVTVGVSDRSTFSWWESRALFGWRVLVPRAKDQAGPMSSRIAAYGAIAQEVPTISVEPPRNPAQLERAIKGIVEGRYQWVVFTSVNAVKAVREKIVSFGLDSRAFAGVHIAAVGAKTAAAIREFGITPELIPPRKEHNAAGMVSVFPNYVEGLDPVGRVLLPRADIATDVLVDGLVNLGWEVDDVVAYRTVRAAPPSAEVRDMIKSGDFDAVCFTSASTVRNLVGIAGKPHARTIIACIGPMTAAEAEKQGLRVDVIPEVANVAALVDALAEHVEKLRAAGELPPPRKKRRARRKSKEGAV | not soluble |
| MRLPCEVVFARYKANAGVNPKPTKSQKGFVILQKLRQTPPQYQITVAVAGDKTGNKFELNKPPIILDKFIAQGKTTITFQTTPAVMVCISKANPEALAQLIEAIRKIVKGENVDIEKVKVKSSDFKPTTITVNNQATYKKQMQSCSEFLKTLKIEPIDLRRPDKAWRFCHNLTRLTLNGNPIGAHNRDLDVFSKLKQLQSLEMRSCSLELIPVPAMCTMFRELPTSISLLDFGDNHLSIFPPIFHLKQLKIINAAHNAIKYLPSRIGVLQNLNTIDVSNNLMTALPYVFSKIPSIEHVGINANDQMVRLEEEIGPIFIRRLLTKVDNIEYTHEGGVDKLGTIAANAIHREECSKSMKFGRQFLPLSLRFDMDDLMFEKPGISSLELCTGCVRLRHIRYIRPLIIQSRQIANSVDVIGRFVTFDRLLCIDCYRRTTSTNNGEPPFQCDYFQFAV | not soluble |
